To fix the notation:
B1: JIP1, full length, YFP fragment F1 fusion (BiFC) [not stated] / F2-JNK1 (K55R) (BiFC) [human] (parent complex)
chain 1: MAERESGGLGGGAASPPAASPFLGLHIASPPNFRLTHDISLEEFEDEDLSEITDECGISLQCKDTLSLRPPRAGLLSAGGGGAGSRLQAEMLQMDLIDATGDTPGAEDDEEDDDEERAARRPGAGPPKAESGQEPASRGQGQSQGQSQGPGSGDTYRPKRPTTLNLFPQVPRSQDTLNNNSLGKKHSWQDRVSRSSSPLKTGEQTPPHEHICLSDELPPQSGPAPTTDRGTSTDSPCRRSTATQMAPPGGPPAAPPGGRGHSHRDRIHYQADVRLEATEEIYLTPVQRPPDAAEPTSAFLPPTESRMSVSSDPDPAAYPSTAGRPHPSISEEEEGFDCLSSPERAEPPGGGWRGSLGEPPPPPRASLSSDTSALSYDSVKYTLVVDEHAQLELVSLRPCFGDYSDESDSATVYDNCASVSSPYESAIGEEYEEAPRPQPPACLSEDSTPDEPDVHFSKKFLNVFMSGRSRSSSAESFGLFSCIINGEEQEQTHRAIFRFVPRHEDELELEVDDPLLVELQAEDYWYEAYNMRTGARGVFPAYYAIEVTKEPEHMAALAKNSDWVDQFRVKFLGSVQVPYHKGNDVLCAAMQKIATTRRLTVHFNPPSSCVLEISVRGVKIGVKADDSQEAKGNKCSHFFQLKNISFCGYHPKNNKYFGFITKHPADHRFACHVFVSEDSTKALAESVGRAFQQFYKQFVEYTCPTEDIYLE
chain 2: MSRSKRDNNFYSVEIGDSTFTVLKRYQNLKPIGSGAQGIVCAAYDAILERNVAIRKLSRPFQNQTHAKRAYRELVLMKCVNHKNIIGLLNVFTPQKSLEEFQDVYIVMELMDANLCQVIQMELDHERMSYLLYQMLCGIKHLHSAGIIHRDLKPSNIVVKSDCTLKILDFGLARTAGTSFMMTPYVVTRYYRAPEVILGMGYKENVDLWSVGCIMGEMVCHKILFPGRDYIDQWNKVIEQLGTPCPEFMKKLQPTVRTYVENRPKYAGYSFEKLFPDVLFPADSEHNKLKASQARDLLSKMLVIDASKRISVDEALQHPYINVWYDPSEAEAPPPKIPDKQLDEREHTIEEWKELIYKEVMDLEERTKNGVIRGQPSPLGAAVINGSQHPSSSSSVNDVSSMSTDPTLASDTDSSLEAAAGPLGCCR

The variants in the experiment derive from B1. The experiment can be described thus: BiFC (bimolecular fragment complementation), fluorescence measurement on co-transfected HEK293 cell populations; live HEK293 cells, transient co-transfection, N = 6; read off a plot.
As to chain 1 R160A, chain 1 P161A, chain 1 L164A, chain 1 L166A, the response was about 1700 arbitrary units.

The values are drawn from paper PMC4670726 (2015).
